Measurements as given in patent publication US20220282217A1 (BIONTECH US, published 2022).

Target: T1, HLA-A02.01 (human)
T1 construct: Purified class I MHC
Assay: pMHC-I dissociation half-life, 125I-b2m
Method: (§1) Briefly, synthetic genes encoding biotinylated MHC-I heavy and light chains are expressed in E. coli and purified from inclusion bodies using standard methods. […] These reactions are carried out in streptavidin coated microplates to bind the biotinylated MHC-I heavy chains to the surface and allow measurement of radiolabeled light chain to monitor complex formation. Dissociation is initiated by addition of higher concentrations of unlabeled light-chain and incubation at 37° C. Stability is defined as the length of time in hours it takes for half of the complexes to dissociate, as measured by scintillation counts.

| Binder | Stability (T1/2 (h)) [h] |
| --- | --- |
| LLAFWDSQV (also called TP53, AAVG) | 12.8 |
| ALSEHCPTT (also called TP53, CSES) | 27.3 |
| YMCNSSCMGS (also called TP53, G245S) | 0.8 |
| SMNRRPILT (also called TP53, G245S) | 0 |
| GMNQRPILTI (also called TP53, R248Q) | 0.4 |
| GMNQRPILT (also called TP53, R248Q) | 0 |
| GMNWRPILT (also called TP53, R248W) | 0 |
| CMGGMNQRPI (also called TP53, R248Q) | 0 |
| LLGRNSFEVC (also called TP53, R273C) | 0 |
| NSFEVCVCA (also called TP53, R273C) | 0 |
| NSFEVHVCA (also called TP53, R273H) | 0 |
| SMLTDSLFL (also called VHL, QCIL) | 9.8 |

Target: T2, HLA-B08.01 (human)
T2 construct: Purified class I MHC
Assay: pMHC-I dissociation half-life, 125I-b2m
Method: as §1

| Binder | Stability (T1/2 (h)) [h] |
| --- | --- |
| TQLARFFPI (also called RNF43, RHTP) | 0 |
| MALNSEALSV (also called TMPRSS2: ERG) | 0 |
| CMGSMNRRPI (also called TP53, G245S) | 0 |
| SMNRRPILTI (also called TP53, G245S) | 0 |
| SMNRRPILT (also called TP53, G245S) | 0 |
| LPRKPTRAA (also called TP53, QPSL) | 0 |
| NQRPILTII (also called TP53, R248Q) | 0 |
| GMNQRPILTI (also called TP53, R248Q) | 0 |
| GMNWRPILTI (also called TP53, R248W) | 0 |
| CMGGMNQRPI (also called TP53, R248Q) | 0 |
| CMGGMNWRPI (also called TP53, R248W) | 0 |
| MNWRPILTI (also called TP53, R248W) | 0 |
| MLTDSLFLPI (also called VHL, QCIL) | 0 |

Target: HLA-A02.01 (human)
Assay: pMHC-I complex dissociation at 37 C, 125I-b2m, half-life
Method: as §1

| Binder | Stability (T1/2 (h)) [h] |
| --- | --- |
| ELFPLIFPA (also called C11orf95: RELA) | 5.1 |
| QLQDKFEHL (also called EGFR: SEPT14) | 0.6 |
| IQLQDKFEHL (also called EGFR: SEPT14) | 0.2 |
| VLERCPHRPI (also called FGFR3, S249C) | 0 |

Target: T3, HLA-B08.01 (human)
T3 construct: As for HLA-A02.01
Assay: as above
Method: as §1

| Binder | Stability (T1/2 (h)) [h] |
| --- | --- |
| SLLNYLREM (also called BTK, C481S) | 0 |
| MANGSLLNYL (also called BTK, C481S) | 0 |
| ELFPLIFPA (also called C11orf95: RELA) | 0 |
| SVCFFFFSV (also called CNOT1(+1)) | 0 |
| QLIMQLMPF (also called EGFR, T790M) | 0 |
| IMQLMPFGCL (also called EGFR, T790M) | 0 |
| MQLMPFGCL (also called EGFR, T790M) | 0 |
| MQLMPFGCLL (also called EGFR, T790M) | 0 |
| VQLIMQLMPF (also called EGFR, T790M) | 0 |
| QLQDKFEHL (also called EGFR: SEPT14) | 0 |
| IQLQDKFEHL (also called EGFR: SEPT14) | 0 |
| VLERCPHRPI (also called FGFR3, S249C) | 0 |
| LQSLPRFILM (also called ALK, L1196M) | 0 |
| SLPRFILMEL (also called ALK, L1196M) | 0 |
| LTINKEEAL (also called BCR: ABL (e13a2, aka b2a2)) | 0 |

Target: T1, HLA-A02.01
Assay: competition with radiolabeled reference peptide, purified MHC I
Method: (§2) Peptides were incubated at varying concentrations with these complexes for 2 days, and the amount of remaining radiolabeled peptide bound to […] was measured using size exclusion gel-filtration.

| Binder | IC50 [nM] |
| --- | --- |
| LLAFWDSQV (also called TP53, AAVG) | 68 |
| ALSEHCPTT (also called TP53, CSES) | 79 |
| YMCNSSCMGS (also called TP53, G245S) | 81 |
| SMNRRPILT (also called TP53, G245S) | 3840 |
| GMNQRPILTI (also called TP53, R248Q) | 709 |
| GMNQRPILT (also called TP53, R248Q) | 3030 |
| GMNWRPILT (also called TP53, R248W) | 1130 |
| CMGGMNQRPI (also called TP53, R248Q) | 3670 |
| LLGRNSFEVC (also called TP53, R273C) | 2080 |
| NSFEVCVCA (also called TP53, R273C) | 2200 |
| NSFEVHVCA (also called TP53, R273H) | 503 |
| SMLTDSLFL (also called VHL, QCIL) | 31 |

Target: HLA-A02.01 (human)
Assay: competition vs radiolabeled reference peptide on purified MHC I, gel filtration
Method: as §2

| Binder | IC50 [nM] |
| --- | --- |
| ELFPLIFPA (also called C11orf95: RELA) | 13 |
| KLFSCLSFLS (also called C15ORF40(+1)) | 0.6 |
| IQLQDKFEHL (also called EGFR: SEPT14) | 4260 |
| VLERCPHRPI (also called FGFR3, S249C) | 15300 |

Target: T4, HLA-A03.01 (human)
T4 construct: As for HLA-A02.01
Assay: as above
Method: as §2

| Binder | IC50 [nM] |
| --- | --- |
| MANGSLLNY (also called BTK, C481S) | 35.6 |
| SLQPPPPGFK (also called C15ORF40(+1)) | 19 |
| LFFFFFETK (also called C15ORF40(+1)) | 413 |
| ALFFFFFETK (also called C15ORF40(+1)) | 216 |
| LSFLSSWDYR (also called C15ORF40(+1)) | 101 |
| KLFSCLSFLS (also called C15ORF40(+1)) | 104 |
| RMKVPLMK (also called FAM111B(-1)) | 33 |
| TTLNSPPLKK (also called β2M, . . ; MPAV) | 14.3 |
| TTLNSPPLK (also called β2M, . . ; MPAV) | 9.8 |
| TLNSPPLKK (also called β2M, . . ; MPAV) | 5.4 |
| CTTLNSPPLK (also called β2M, . . ; MPAV) | 63.6 |
| LTSSSREWK (also called β2M, . . ; SIRH) | 118 |
| LLTSSSREWK (also called β2M, . . ; SIRH) | 1770 |
